B1: Hairpin Ribozyme (parent)
chain: GUCCUCUUUCACGUGCGCGUGAAAGAGAGAAGUGAACCAGAGAAACACACGUUGUGGUAUAUUACCUGGUA

Variants of: B1
Test: self-cleavage, relative activity (ratio to wild type); higher = more cleavage; co-transcriptional

Row | Variant | self-cleavage
1 | GUCCUCUUUCACGUGCGCGUGAAAGAGAGAAGUGAACCAGAGAAACACACGUUGUGGUAUACUACCUGGCA | 0.255
2 | GUCCUCUUUCACGUGCGCGUGAAAGAGAGAAGUGAACCAGAGAAACACACGUUGUGGUAUACUACCUGGAA | 0.194
3 | GUCCUCUUUCACGUGCGCGUGAAAGAGAGAAGUGAACCAGAGAAACACACGUUGUGGUAGAUUACCAGGUA | 0.144
4 | GUCCUCUUUCACGUGCGCGUGAAAGAGAGAAGUGAACCAGAGAAACACACGUUGUGGUAUAAUACCUGGUC | 0.325
5 | GUCCUCUUUCACGUGCGCGUGAAAGAGAGAAGUGAACCAGAGAAACACACGUUGUGGUAUAAUACCUGGUU | 0.169
6 | GUCCUCUUUCACGUGCGCGUGAAAGAGAGAAGUGAACCAGAGAAACACACGUUGUGGUAUAAUACCUAGUA | 0.187
7 | GUCCUCUUUCACGUGCGCGUGAAAGAGAGAAGUGAACCAGAGAAACACACGUUGUGGUAUAAUACCUCGUA | 0.156
8 | GUCCUCUUUCACGUGCGCGUGAAAGAGAGAAGUGAACCAGAGAAACACACGUUGUGGUAUCUUACCUGGUA | 0.214
9 | GUCCUCUUUCACGUGCGCGUGAAAGAGAGAAGUGAACCAGAGAAACACACGUUGUGGUAUUUUACCUGGUA | 0.213
10 | GUCCUCUUUCACGUGCGCGUGAAAGAGAGAAGUGAACCAGAGAAACACACGUUGUGGUAUGUUACCUGGUA | 0.183
11 | GUCCUCUUUCACGUGCGCGUGAAAGAGAGAAGUGAACCAGAGAAACACACGUUGUGGUAUAGUACCAGGUA | 0.25
12 | GUCCUCUUUCACGUGCGCGUGAAAGAGAGAAGUGAACCAGAGAAACACACGUUGUGGUAUAAUACCUGCUA | 0.113
13 | GUCCUCUUUCACGUGCGCGUGAAAGAGAGAAGUGAACCAGAGAAACACACGUUGUGGUAUAAUACCUGUUA | 0.04
14 | GUCCUCUUUCACGUGCGCGUGAAAGAGAGAAGUGAACCAGAGAAACACACGUUGUGGUAUAAUACCUGAUA | 0.176
15 | GUCCUCUUUCACGUGCGCGUGAAAGAGAGAAGUGAACCAGAGAAACACACGUUGUGGUAUAUAACCUGGUA | 0.188
16 | GUCCUCUUUCACGUGCGCGUGAAAGAGAGAAGUGAACCAGAGAAACACACGUUGUGGUAUUUUUCCUGGUA | 0.3
17 | GUCCUCUUUCACGUGCGCGUGAAAGAGAGAAGUGAACCAGAGAAACACACGUUGUGGUAUAUAAACUGGUA | 0.219
18 | GUCCUCUUUCACGUGCGCGUGAAAGAGAGAAGUGAACCAGAGAAACACACGUUGUGGUAGAAUACCUGGUA | 0.203
19 | GUCCUCUUUCACGUGCGCGUGAAAGAGAGAAGUGAACCAGAGAAACACACGUUGUGGUAUAGUACCUGGUU | 0.367

Row | Variant | self-cleavage
20 | GUCCUCUUUCACGUGCGCGUGAAAGAGAGAAGUGAACCAGAGAAACACACGUUGUGGUAUACUACAUGGUA | 0.13
21 | GUCCUCUUUCACGUGCGCGUGAAAGAGAGAAGUGAACCAGAGAAACACACGUUGUGGUAUACGACCUGGUA | 0.228
22 | GUCCUCUUUCACGUGCGCGUGAAAGAGAGAAGUGAACCAGAGAAACACACGUUGUGGUAUAGUACCUUGUA | 0.257
23 | GUCCUCUUUCACGUGCGCGUGAAAGAGAGAAGUGAACCAGAGAAACACACGUUGUGGUAUUCUACCUGGUA | 0.197
24 | GUCCUCUUUCACGUGCGCGUGAAAGAGAGAAGUGAACCAGAGAAACACACGUUGUGGUAUUGUACCUGGUA | 0.0473
25 | GUCCUCUUUCACGUGCGCGUGAAAGAGAGAAGUGAACCAGAGAAACACACGUUGUGGUAUGUUACAUGGUA | 0.246
26 | GUCCUCUUUCACGUGCGCGUGAAAGAGAGAAGUGAACCAGAGAAACACACGUUGUGGUAUAUAUCCUGGUA | 0.198
27 | GUCCUCUUUCACGUGCGCGUGAAAGAGAGAAGUGAACCAGAGAAACACACGUUGUGGUAUUUUACUUGGUA | 0.176
28 | GUCCUCUUUCACGUGCGCGUGAAAGAGAGAAGUGAACCAGAGAAACACACGUUGUGGUAUUUUACAUGGUA | 0.122
29 | GUCCUCUUUCACGUGCGCGUGAAAGAGAGAAGUGAACCAGAGAAACACACGUUGUGGUAUCUUAACUGGUA | 0.165
30 | GUCCUCUUUCACGUGCGCGUGAAAGAGAGAAGUGAACCAGAGAAACACACGUUGUGGUAUACUCCCUGGUA | 0.149
31 | GUCCUCUUUCACGUGCGCGUGAAAGAGAGAAGUGAACCAGAGAAACACACGUUGUGGUAUACUUCCUGGUA | 0.187
32 | GUCCUCUUUCACGUGCGCGUGAAAGAGAGAAGUGAACCAGAGAAACACACGUUGUGGUAUCUUACCUGUUA | 0.145
33 | GUCCUCUUUCACGUGCGCGUGAAAGAGAGAAGUGAACCAGAGAAACACACGUUGUGGUAUCUUACCUGAUA | 0.159
34 | GUCCUCUUUCACGUGCGCGUGAAAGAGAGAAGUGAACCAGAGAAACACACGUUGUGGUAGAUUACCUGGGA | 0.514
35 | GUCCUCUUUCACGUGCGCGUGAAAGAGAGAAGUGAACCAGAGAAACACACGUUGUGGUAUACUACCUGGUC | 0.595
36 | GUCCUCUUUCACGUGCGCGUGAAAGAGAGAAGUGAACCAGAGAAACACACGUUGUGGUAUACUACCUCGUA | 0.223
37 | GUCCUCUUUCACGUGCGCGUGAAAGAGAGAAGUGAACCAGAGAAACACACGUUGUGGUAUACUACCUAGUA | 0.2
38 | GUCCUCUUUCACGUGCGCGUGAAAGAGAGAAGUGAACCAGAGAAACACACGUUGUGGUAUCUUCCCUGGUA | 0.0878

Reference: the RNAGym collection of RNA variant scans (doi:10.7554/elife.80360)
